Key:
Dps [1] = target: T1, Dps (Escherichia coli, UniProt P0ABT2 1-167); assay: EMSA; 2-fold Dps excess: triplex significantly reduced; EMSA: 50 mM Tris-HCl pH 7.5, 0.1 mM EDTA, 50 mM NaCl, 37°C 30 min; footprinting: 50 mM Tris-HCl pH 8.0, 0.1 mM EDTA, 0.1 mM DTT, 10 mM MgCl2, 50 mM NaCl, 5 mg/m
Dps [2] = target: T1, Dps; assay: AFM; bound protein slightly shifted from center; EMSA: 50 mM Tris-HCl pH 7.5, 0.1 mM EDTA, 50 mM NaCl, 37°C 30 min; footprinting: 50 mM Tris-HCl pH 8.0, 0.1 mM EDTA, 0.1 mM DTT, 10 mM MgCl2, 50 mM NaCl, 5 mg/m

B1: Y5_Y6_Y7 (structured_DNA)
DNA 1: CTTTTCCTCTACACCGTCTTTATATATCGAATTAAGAAGTCGCAATGAGTATTACTTTGTAAAT
DNA 2: CAAGGGTAAACGAACCTTGCGCTTTCTTAAATATTCGATATATAAAGACGGTGTAGAGGAAAAG
DNA 3: ATTTACAAAGTAATACTCATTGCGACTTCTTAATTTAAGAAAGCGCAAGGTTCGTTTACCCTTG
binding result (Dps [1]): binds

B2: Y5_Y6_Y8 (structured_DNA)
DNA 1: CTTTTCCTCTACACCGTCTTTATATATCGAATTAAGAAGTCGCAATGAGTATTACTTTGTAAAT
DNA 2: CAAGGGTAAACGAACCTTGCGCTTTCTTAAATATTCGATATATAAAGACGGTGTAGAGGAAAAG
DNA 3: ATTTACAAAGTAATACTCATTGCGACTTCTTAATTTAAGAAAGCGCAAGGAACGTTTACCCTTG
binding result (Dps [2]): binds

From article PMC4433220
